In patent publication US20040115622A1:
No end group written: not given here.

T1: HLA-DR molecule encoded by the allele DRB3*0101 (human)
T1 chain 1: not shown
T1 chain 2: not shown

T2: HLA-DR molecule encoded by the allele DRB4*0101 (human)
T2 chain 1: not shown
T2 chain 2: not shown

T3: HLA-DR molecule encoded by the allele DRB1*1301 (human)
T3 chain 1: not shown
T3 chain 2: not shown


Experiments:
[1] = target: HLA-DR molecule encoded by the allele DRB1*0401 (human); test: competition ELISA vs biotinylated HA 306-318
[2] = target: T1, HLA-DR molecule encoded by the allele …; test: competition ELISA vs biotinylated Lol 191-210
[3] = target: HLA-DR molecule encoded by the allele DRB5*0101 (human); test: competition ELISA vs biotinylated HA 306-318
[4] = target: T2, HLA-DR molecule encoded by the allele …; test: competition ELISA vs biotinylated E2/E168
[5] = target: HLA-DR molecule encoded by the allele DRB1*0101 (human); test: competition ELISA vs biotinylated HA 306-318
[6] = target: HLA-DR molecule encoded by the allele DRB1*1101 (human); test: competition ELISA vs biotinylated HA 306-318
[7] = target: HLA-DR molecule encoded by the allele DRB1*0701 (human); test: competition ELISA vs biotinylated YKL
[8] = target: T3, HLA-DR molecule encoded by the allele …; test: competition ELISA vs biotinylated B1 21-36
[9] = target: HLA-DR molecule encoded by the allele DRB1*0301 (human); test: competition ELISA vs biotinylated MT 2-16
[10] = target: HLA-DR molecule encoded by the allele DRB1*1501 (human); test: competition ELISA vs biotinylated A3 152-166
[11] = target: T3, HLA-DR molecule encoded by the allele …; test: competition ELISA, nonbiotinylated peptide vs its biotinylated form

Binder | IC50 [1] [nM] | IC50 [2] [nM] | IC50 [3] [nM] | IC50 [4] [nM] | IC50 [5] [nM] | IC50 [6] [nM] | IC50 [7] [nM] | IC50 [8] [nM] | IC50 [9] [nM] | IC50 [10] [nM] | IC50 [11] [nM]
TQGYFPDWQNYTPGPG (modifications not checked) [Nef8 peptide (positions 117-132 of the HIV-1 Nef protein, Bru strain), P03406 117-132] | 8000 | 120 | – | – | – | – | – | – | – | – | –
DKVEEANKGENTSLL (modifications not checked) [Nef10.6 peptide (positions 151-165 of the HIV-1 Nef protein, Bru strain), P03406 151-165] | – | – | 1500 | – | – | – | – | – | – | – | –
WCYKLVPVEPDKVEE (modifications not checked) [Nef10.3 peptide (positions 141-155 of the HIV-1 Nef protein, Bru strain), P03406 141-155] | 250 | – | 1500 | 1030 | 850 | 350 | 250 | – | – | – | –
LTFGWCYKLVPVEPD (modifications not checked) [Nef10.1 peptide (positions 137-151 of the HIV-1 Nef protein, Bru strain), P03406 137-151] | 2000 | – | 4500 | 2200 | 150 | 95 | 650 | – | – | – | –
AAVDLSHFLKEKGGL (modifications not checked) [Nef4.7 peptide (positions 83-97 of the HIV-1 Nef protein, Bru strain), P03406 83-97] | – | – | 3250 | – | 500 | 7500 | – | – | – | – | –
LEKHGAITSSNTAATNAACAWLEAQEEEEVGFPVT (modifications not checked) [Nef3 peptide (positions 37-71 of the HIV-1 Nef protein, Bru strain), P03406 37-71] | 70 | – | – | 8000 | 2500 | 2000 | 3000 | – | – | – | –
LEWRFDSRLAFHHVA (modifications not checked) [Nef13.2 peptide (positions 181-195 of the HIV-1 Nef protein, Bru strain), P03406 181-195] | – | 60 | 6 | – | – | 18 | 933 | 350 | 73 | – | –
DPEREVLEWRFDSRLA (modifications not checked) [Nef12 peptide (positions 175-190 of the HIV-1 Nef protein, Bru strain), P03406 175-190] | 2500 | 145 | – | 275 | – | 125 | 700 | – | 3500 | 13 | –
GVRYPLTFGWCYKLVP (modifications not checked) [Nef9 peptide (positions 132-147 of the HIV-1 Nef protein, Bru strain), P03406 132-147] | – | – | 8000 | – | 8.5 | – | 5500 | – | – | 1500 | –
VPVEPDKVEEANKGE (modifications not checked) [Nef10.5 peptide (positions 146-160 of the HIV-1 Nef protein, Bru strain), P03406 146-160] | 2000 | – | – | – | 550 | – | – | – | 2500 | – | –
EANKGENTSLLHPVSLHGMDDPEREVLEWRF (modifications not checked) [Nef11 peptide (positions 155-185 of the HIV-1 Nef protein, Bru strain), P03406 155-185] | – | – | 3000 | 450 | 2000 | 3000 | 3750 | – | – | 50 | –
PAADGVGAASRDLEK (modifications not checked) [Nef2 peptide (positions 25-39 of the HIV-1 Nef protein, Bru strain), P03406 25-39] | – | – | – | – | – | – | – | – | 4250 | – | –
REVLEWRFDSRLAFH (modifications not checked) [Nef13.1 peptide (positions 178-192 of the HIV-1 Nef protein, Bru strain), P03406 178-192] | – | 28 | – | – | – | 8 | 350 | 867 | 125 | – | –
EWRFDSRLAFHHVAREL (modifications not checked) [Nef13 peptide (positions 182-198 of the HIV-1 Nef protein, Bru strain), P03406 182-198] | 3250 | 250 | 10 | 6330 | 5000 | 48 | 150 | 750 | 55 | – | –
LTFGWCYKLVPVEPDKVEEANKGENTSLLHPV (modifications not checked) [Nef10 peptide (positions 137-168 of the HIV-1 Nef protein, Bru strain), P03406 137-168] | 150 | 3500 | 250 | 55 | 650 | 45 | 65 | – | 175 | 1250 | –
YKLVPVEPDKVEEAN (modifications not checked) [Nef10.4 peptide (positions 143-157 of the HIV-1 Nef protein, Bru strain), P03406 143-157] | 2750 | – | – | 1730 | 9000 | – | 2250 | – | 1470 | – | –

Binder | IC50 [1] [nM] | IC50 [2] [nM] | IC50 [3] [nM] | IC50 [4] [nM] | IC50 [5] [nM] | IC50 [6] [nM] | IC50 [7] [nM] | IC50 [8] [nM] | IC50 [9] [nM] | IC50 [10] [nM] | IC50 [11] [nM]
FGWCYKLVPVEPDKV (modifications not checked) [Nef10.2 peptide (positions 139-153 of the HIV-1 Nef protein, Bru strain), P03406 139-153] | 250 | – | 900 | 605 | 85 | 250 | 120 | – | – | – | –
PTVRERMRRAEPAAD (modifications not checked) [Nef1.4 peptide (positions 14-28 of the HIV-1 Nef protein, Bru strain), P03406 14-28] | – | – | – | – | 1400 | 1250 | – | 750 | – | – | –
WIYHTQGYFPDWQNYT (modifications not checked) [Nef7 peptide (positions 113-128 of the HIV-1 Nef protein, Bru strain), P03406 113-128] | – | 75 | – | – | – | – | 4000 | – | – | 9000 | –
FHHVARELHPEYFKN (modifications not checked) [Nef13.6 peptide (positions 191-205 of the HIV-1 Nef protein, Bru strain), P03406 191-205] | – | – | 8000 | – | – | 550 | 2500 | 3000 | 700 | – | –
ERMRRAEPAADGVGA (modifications not checked) [Nef1.5 peptide (positions 18-32 of the HIV-1 Nef protein, Bru strain), P03406 18-32] | – | – | – | – | 2750 | – | – | – | – | – | –
VGWPTVRERMRRAEP (modifications not checked) [Nef1.3 peptide (positions 11-25 of the HIV-1 Nef protein, Bru strain), P03406 11-25] | – | – | – | – | – | – | – | 700 | – | – | –
TERVRLVTRHIYNREE (not fully specified) [B1 21-36 peptide, nonbiotinylated] | – | – | – | – | – | – | – | – | – | – | 330
WRFDSRLAFHHVARE (modifications not checked) [Nef13.3 peptide (positions 183-197 of the HIV-1 Nef protein, Bru strain), P03406 183-197] | – | 5000 | 15 | – | – | 11 | 900 | 250 | 567 | – | –
MGGKWSKSSVVGWPTVRERMRRAEPAADGVGAASRD (modifications not checked) [Nef1 peptide (positions 1-36 of the HIV-1 Nef protein, Bru strain), P03406 1-36] | 250 | – | 400 | 2500 | 700 | 550 | 40 | 325 | – | 40 | –
SRLAFHHVARELHPE (modifications not checked) [Nef13.4 peptide (positions 187-201 of the HIV-1 Nef protein, Bru strain), P03406 187-201] | – | – | 300 | – | – | 6 | 225 | 350 | – | – | –
GKWSKSSVVGWPTVR (modifications not checked) [Nef1.1 peptide (positions 3-17 of the HIV-1 Nef protein, Bru strain), P03406 3-17] | 700 | – | – | – | 1250 | 1750 | 48 | 3000 | – | 150 | –
SSVVGWPTVRERMRR (modifications not checked) [Nef1.2 peptide (positions 8-22 of the HIV-1 Nef protein, Bru strain), P03406 8-22] | – | – | – | – | – | 7500 | – | 700 | – | 200 | –
LAFHHVARELHPEYF (modifications not checked) [Nef13.5 peptide (positions 189-203 of the HIV-1 Nef protein, Bru strain), P03406 189-203] | – | – | 600 | – | – | 8 | 250 | 600 | 1470 | – | –
DLSHFLKEKGGLEGL (modifications not checked) [Nef5 peptide (positions 86-100 of the HIV-1 Nef protein, Bru strain), P03406 86-100] | – | – | 8000 | – | 6000 | – | – | – | – | – | –
LIHSQRRQDILDLWI (modifications not checked) [Nef6 peptide (positions 100-114 of the HIV-1 Nef protein, Bru strain), P03406 100-114] | – | – | – | 1750 | – | 3000 | – | – | – | 1750 | –
